Molecular target: human CDw32 antigen (IgG Fc receptor) (human) (UniProt P12318)
Assay: indirect immunofluorescence on CDw32-transfected COS cells

Chain of UniProt P12318 (P12318 34-317 H167R limits assumed, form in doubt): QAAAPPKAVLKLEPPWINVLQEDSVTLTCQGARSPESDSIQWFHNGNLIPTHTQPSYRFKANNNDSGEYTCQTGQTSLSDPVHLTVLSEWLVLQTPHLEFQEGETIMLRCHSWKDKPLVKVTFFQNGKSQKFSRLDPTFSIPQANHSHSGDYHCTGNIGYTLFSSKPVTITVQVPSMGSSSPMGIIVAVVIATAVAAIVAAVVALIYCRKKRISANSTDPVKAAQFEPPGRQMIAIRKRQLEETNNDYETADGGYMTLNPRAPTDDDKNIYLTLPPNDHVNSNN

## human IgG (antibody)
  Kd: 0.1 µM

## mouse IgG (antibody)
  Kd: 0.1 µM
